# “Also recorded” adds a separate entry of the source. Primed or numbered codes have the meaning given here. *: point of attachment. Alexa‑350 = fluorescent label on the Cys side chain (double-labeled qf-Aβ(1-7)C); Dabcyl′ = CN(C)c1ccc(/N=N/c2ccc(C(=O)*)cc2)cc1
# Legend:
# NEP = assay: Screening of compounds for NEP activity of SH-SY5Y cells with qf-Aβ(1-7)C substrate; assay type: cell-based, human; conditions: 5 μM compound, 24 hr; 2 μM qf-Aβ(1-7)C, 1 h
# Experimental: The compound number is indicated on the left of each bar. […] (**, p value<0.001; *, p value<0.01).
# Analogs comprising at least three hydroxyl groups attached to the two aromatic rings of the curcumin structure scaffold (Compound 1) were particularly active in enhancing NEP activity.
# Human SH-SY5Y cells were cultured in the Dulbecco's modified Eagle's medium (DMEM, Gibco, USA) supplemented with 10% fetal bovine serum (FBS; Biological industries, USA) in 5% CO2 at 37° C. The cells were harvested and re-suspended in the phenol red-free DMEM medium supplemented with 10% FBS at a density of 1×10^6 cells/mL. 100 μL of cell culture was added in each well of a 96-well plate. The compounds (no. 1 to no. 24) were dissolved in DMSO, and the others (no. 25 and no. 26) were dissolved in sterilized water to make the stock solution (1 mM). Each compound was mixed with phenol red-free DMEM supplemented with 10% FBS to a final concentration of 10 μM. 100 μL of the medium containing 10 μM indicated compound was added into the wells to make the final compound concentration 5 μM. After incubation for 24 hr, the medium of the culture was replaced with the phenol red-free DMEM medium (not FBS) containing 2 μM qf-Aβ(1-7)C and incubation continued for additional 1 h. To measure the proteolytic activity, 100 μL of the medium was taken out for fluorescence measurement on SpectraMax Gemini EM (Molecular Devices, USA) with excitation at 346 nm and emission at 442 nm. The average of three replicate wells was used for each sample and control.
# recombinant human NEP = target: T1, recombinant human NEP (Homo sapiens, UniProt P08473); assay: Fluorogenic enzyme assay, peptide substrate digested by NEP; assay type: biochemical
# T1 construct: purchased R&D Systems (USA)
# Experimental: To determine the optimal reaction conditions, 0.92 nM NEP was mixed with different concentrations of qf-Aβ(1-7)C, then, after incubation for 1, 2, 3, or 4 h at 37° C., the peptide-degrading activity of NEP was measured by recording fluorescence emission at 465 nm. The fluorescence intensity increased at least 40-fold with the degradation of the quenched fluorogenic peptide. […] Incubation for 1 h was sufficient for detection. At higher substrate concentrations, the fluorescence intensity was much larger, but the error increased. To test whether the sensitivity of NEP detection was increased when a higher substrate concentration was used, 1.84 μM qf-Aβ(1-7)C was mixed with different concentrations of NEP and reacted at 37° C. for 1, 2, 3, or 4 h and the fluorescence emission at 465 nm measured (FIG. 4). […] The substrate concentration of 1.84 μM or more was therefore used in the following studies.
# To determine the optimal substrate concentration in the fluorogenic enzyme assay, NEP (0.5 mg/mL) and substrate peptide qf-Aβ(1-7)C (1 mM) were mixed in 50 mM Tris-HCl (pH 7.5), 25 mM NaCl, 5 μM ZnCl2 to a final NEP concentration of 0.92 nM and peptide concentrations of 0.46, 0.92, 1.84, 3.68, or 7.36 μM and placed on a 96-well plate (Corning, USA). The final volume of the reaction solution was kept as 200 μL. The enzyme reaction was performed in the dark at 37° C. and the fluorescence was measured at 1, 2, 3, and 4 h with excitation at 360 nm and emission at 465 nm on a Paradigm™ Detection Platform (Beckman Coulter, USA) (FIG. 3). […] The enzyme reaction was performed in the dark at 37° C. and the fluorescence was measured at 1, 2, 3, and 4 h. […]
# (§1) One commercially available quenched fluorogenic peptide substrate, Dansyl-^DAGF(pNO2)G, was tested for comparison. The fluorescence of dansyl is quenched by the presence of nitrophenyl group. Digestion was monitored by the fluorescence increase of dansyl at 562 nm when excited at 342 nm. […]
# [1] = target: T2, insulin-degrading enzyme (IDE) (Homo sapiens, UniProt P14735); assay: Fluorogenic enzyme assay, peptide substrate digested by IDE; assay type: biochemical
# T2 construct: purchased R&D Systems (USA)
# Experimental: (§2) Recombinant human NEP (0.5 mg/mL), insulin-degrading enzyme (IDE) (0.386 mg/mL), endothelin-converting enzyme 1 (ECE-1) (0.298 mg/mL), matrix metalloproteinases (MMP)-3 (0.124 mg/mL) and MMP-9 (0.5 mg/mL), and angiotensin-converting enzyme (ACE) (0.434 mg/mL) were purchased from R&D Systems (USA). Human plasmin (1 mM) was purchased from Sigma (USA). […] MMP-3 and MMP-9 were pre-activated by incubation at 37° C. for 24 h with 1 mM p-aminophenylmercuric acetate. The quenched fluorogenic peptide substrate qf-Aβ(1-7)C (0.4 μL of the 1 mM stock in DMSO) was mixed with different concentrations of enzyme solution (final peptide concentration 2 μM) on a 96-well plate. The final volume of the reaction solution was kept as 200 μL. The mixture was incubated in the dark for 1, 2, 3, or 4 h at 37° C., and then the fluorescence was measured with excitation at 360 nm and emission at 465 nm on a Paradigm™ Detection Platform (Beckman Coulter, USA) (FIG. 5).
# The assay system was sensitive enough to detect as low as 0.10 nM NEP. […]
# as §1
# [2] = target: T3, angiotensin-converting enzyme (ACE) (Homo sapiens, UniProt P12821); assay: Fluorogenic enzyme assay, peptide substrate digested by ACE; assay type: biochemical; conditions: 2 μM substrate
# T3 construct: purchased R&D Systems (USA)
# Experimental: as §2
# One commercially available quenched fluorogenic peptide substrate, Dansyl-^DAGF(pNO2)G, was tested for comparison. The fluorescence of dansyl is quenched by the presence of nitrophenyl group. Digestion was monitored by the fluorescence increase of dansyl at 562 nm when excited at 342 nm. […] This substrate also has enzyme specificity. It is sensitive to NEP and ACE (FIG. 8B). […]
# MMP-3 = target: T4, MMP-3 (Homo sapiens, UniProt P08254); assay: Fluorogenic enzyme assay, peptide substrate digested by MMP-3; assay type: biochemical; conditions: 2 μM substrate
# T4 construct: purchased R&D Systems (USA)
# Experimental: as §2
# Human plasmin = target: T5, Human plasmin (Homo sapiens, UniProt P00747); assay: Fluorogenic enzyme assay, peptide substrate digested by plasmin; assay type: biochemical; conditions: 2 μM substrate
# T5 construct: Human plasmin (1 mM) was purchased from Sigma (USA); purchased Sigma (USA)
# Experimental: as §2
# [3] = target: T6, endothelin-converting enzyme 1 (ECE-1) (Homo sapiens, UniProt P42892); assay: Fluorogenic enzyme assay, peptide substrate digested by ECE-1; assay type: biochemical; conditions: 2 μM substrate, pH 7.5, 37° C.
# T6 construct: purchased R&D Systems (USA)
# T6 sequence (P42892 1-770): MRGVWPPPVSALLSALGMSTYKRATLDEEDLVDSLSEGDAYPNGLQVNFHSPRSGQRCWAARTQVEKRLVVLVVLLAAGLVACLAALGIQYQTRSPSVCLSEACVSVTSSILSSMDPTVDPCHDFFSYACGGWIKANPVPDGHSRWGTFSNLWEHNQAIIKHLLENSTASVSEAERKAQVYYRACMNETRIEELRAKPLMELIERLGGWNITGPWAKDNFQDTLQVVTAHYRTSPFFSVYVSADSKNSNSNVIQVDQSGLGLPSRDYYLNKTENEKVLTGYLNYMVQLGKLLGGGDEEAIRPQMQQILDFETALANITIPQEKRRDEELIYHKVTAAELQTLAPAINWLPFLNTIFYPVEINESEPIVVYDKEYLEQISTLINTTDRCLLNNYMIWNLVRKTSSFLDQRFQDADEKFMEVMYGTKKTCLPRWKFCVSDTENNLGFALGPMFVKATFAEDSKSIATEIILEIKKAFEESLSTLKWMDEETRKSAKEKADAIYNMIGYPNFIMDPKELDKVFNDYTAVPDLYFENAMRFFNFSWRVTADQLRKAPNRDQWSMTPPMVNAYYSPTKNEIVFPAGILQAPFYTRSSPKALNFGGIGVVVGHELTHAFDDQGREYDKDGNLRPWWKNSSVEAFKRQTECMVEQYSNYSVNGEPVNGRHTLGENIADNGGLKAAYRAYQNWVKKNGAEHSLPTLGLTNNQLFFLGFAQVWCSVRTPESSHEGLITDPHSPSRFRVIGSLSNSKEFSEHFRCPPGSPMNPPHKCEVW
# Experimental: as §2
# MMP-9 = target: T7, MMP-9 (Homo sapiens, UniProt P14780); assay: Fluorogenic enzyme assay, peptide substrate digested by MMP-9; assay type: biochemical; conditions: 2 μM substrate, pH 7.5, 37° C.
# T7 construct: purchased R&D Systems (USA)
# Experimental: as §2
# T1 sequence (P08473 whole entry): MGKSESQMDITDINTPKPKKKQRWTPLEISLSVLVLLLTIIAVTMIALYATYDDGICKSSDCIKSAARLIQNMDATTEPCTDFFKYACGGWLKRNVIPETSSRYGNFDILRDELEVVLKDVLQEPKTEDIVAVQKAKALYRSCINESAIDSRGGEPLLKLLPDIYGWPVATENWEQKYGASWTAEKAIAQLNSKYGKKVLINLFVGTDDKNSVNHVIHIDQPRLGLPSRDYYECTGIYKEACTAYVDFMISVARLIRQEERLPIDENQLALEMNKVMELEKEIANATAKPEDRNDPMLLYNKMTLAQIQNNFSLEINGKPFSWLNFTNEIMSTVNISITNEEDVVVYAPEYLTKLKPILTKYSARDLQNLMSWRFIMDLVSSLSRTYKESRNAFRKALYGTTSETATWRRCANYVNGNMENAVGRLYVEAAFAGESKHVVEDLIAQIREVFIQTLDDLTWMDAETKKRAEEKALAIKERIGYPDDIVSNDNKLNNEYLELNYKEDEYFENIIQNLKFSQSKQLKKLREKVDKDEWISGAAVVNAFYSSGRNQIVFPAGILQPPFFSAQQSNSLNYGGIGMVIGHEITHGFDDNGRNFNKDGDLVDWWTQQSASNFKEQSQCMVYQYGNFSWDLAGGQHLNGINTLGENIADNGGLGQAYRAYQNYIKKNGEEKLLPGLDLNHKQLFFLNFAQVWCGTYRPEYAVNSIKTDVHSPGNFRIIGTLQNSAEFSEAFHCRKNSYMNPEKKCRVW
# T5 sequence (P00747 581-810 limits assumed): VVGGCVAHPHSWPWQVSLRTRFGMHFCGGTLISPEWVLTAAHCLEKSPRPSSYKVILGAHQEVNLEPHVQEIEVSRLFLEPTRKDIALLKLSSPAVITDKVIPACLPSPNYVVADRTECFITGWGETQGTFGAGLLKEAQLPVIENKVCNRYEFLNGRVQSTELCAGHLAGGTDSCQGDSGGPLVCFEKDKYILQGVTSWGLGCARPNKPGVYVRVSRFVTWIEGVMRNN
# T5 sequence (P00747 97-580 partner limits assumed): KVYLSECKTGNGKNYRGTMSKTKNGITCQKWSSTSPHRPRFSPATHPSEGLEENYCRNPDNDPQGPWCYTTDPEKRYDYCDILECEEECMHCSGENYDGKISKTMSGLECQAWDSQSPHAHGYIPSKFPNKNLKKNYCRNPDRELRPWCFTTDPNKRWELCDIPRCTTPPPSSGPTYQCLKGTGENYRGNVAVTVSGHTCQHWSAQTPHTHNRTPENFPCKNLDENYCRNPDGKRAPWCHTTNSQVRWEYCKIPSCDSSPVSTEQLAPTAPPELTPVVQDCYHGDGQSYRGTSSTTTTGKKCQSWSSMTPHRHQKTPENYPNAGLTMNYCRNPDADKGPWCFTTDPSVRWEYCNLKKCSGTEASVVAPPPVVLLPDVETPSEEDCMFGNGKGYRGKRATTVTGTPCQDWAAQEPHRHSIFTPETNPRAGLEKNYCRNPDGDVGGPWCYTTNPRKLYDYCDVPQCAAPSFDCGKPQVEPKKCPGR
# T4 sequence (P08254 100-477): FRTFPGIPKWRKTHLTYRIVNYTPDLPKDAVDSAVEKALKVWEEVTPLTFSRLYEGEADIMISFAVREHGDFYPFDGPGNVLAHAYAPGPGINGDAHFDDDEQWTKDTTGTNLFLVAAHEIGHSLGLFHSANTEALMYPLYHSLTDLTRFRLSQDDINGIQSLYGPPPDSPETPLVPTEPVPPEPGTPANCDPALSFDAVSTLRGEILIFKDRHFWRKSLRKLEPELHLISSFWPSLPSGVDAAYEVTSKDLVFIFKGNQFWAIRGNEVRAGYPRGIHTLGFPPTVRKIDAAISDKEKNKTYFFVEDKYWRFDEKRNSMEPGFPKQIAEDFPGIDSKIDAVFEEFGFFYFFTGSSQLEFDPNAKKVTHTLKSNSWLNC
# T7 sequence (P14780 107-707 limits assumed): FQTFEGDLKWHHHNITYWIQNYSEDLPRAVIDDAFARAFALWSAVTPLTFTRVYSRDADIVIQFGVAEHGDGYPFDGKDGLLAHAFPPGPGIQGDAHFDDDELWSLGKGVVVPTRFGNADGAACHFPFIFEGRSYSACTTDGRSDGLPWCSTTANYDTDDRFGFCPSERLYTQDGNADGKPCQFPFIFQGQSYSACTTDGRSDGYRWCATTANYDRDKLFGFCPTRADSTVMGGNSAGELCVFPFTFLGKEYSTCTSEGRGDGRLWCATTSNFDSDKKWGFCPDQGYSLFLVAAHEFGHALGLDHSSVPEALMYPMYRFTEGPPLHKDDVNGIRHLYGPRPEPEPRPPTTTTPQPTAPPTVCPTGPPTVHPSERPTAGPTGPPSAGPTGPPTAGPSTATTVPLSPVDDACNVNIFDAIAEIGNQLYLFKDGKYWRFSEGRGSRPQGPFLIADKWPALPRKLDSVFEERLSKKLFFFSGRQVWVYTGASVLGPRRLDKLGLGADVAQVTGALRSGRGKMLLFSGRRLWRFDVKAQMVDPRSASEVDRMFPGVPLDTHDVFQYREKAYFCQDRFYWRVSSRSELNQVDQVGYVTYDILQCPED
# T3 sequence (P12821 30-1306): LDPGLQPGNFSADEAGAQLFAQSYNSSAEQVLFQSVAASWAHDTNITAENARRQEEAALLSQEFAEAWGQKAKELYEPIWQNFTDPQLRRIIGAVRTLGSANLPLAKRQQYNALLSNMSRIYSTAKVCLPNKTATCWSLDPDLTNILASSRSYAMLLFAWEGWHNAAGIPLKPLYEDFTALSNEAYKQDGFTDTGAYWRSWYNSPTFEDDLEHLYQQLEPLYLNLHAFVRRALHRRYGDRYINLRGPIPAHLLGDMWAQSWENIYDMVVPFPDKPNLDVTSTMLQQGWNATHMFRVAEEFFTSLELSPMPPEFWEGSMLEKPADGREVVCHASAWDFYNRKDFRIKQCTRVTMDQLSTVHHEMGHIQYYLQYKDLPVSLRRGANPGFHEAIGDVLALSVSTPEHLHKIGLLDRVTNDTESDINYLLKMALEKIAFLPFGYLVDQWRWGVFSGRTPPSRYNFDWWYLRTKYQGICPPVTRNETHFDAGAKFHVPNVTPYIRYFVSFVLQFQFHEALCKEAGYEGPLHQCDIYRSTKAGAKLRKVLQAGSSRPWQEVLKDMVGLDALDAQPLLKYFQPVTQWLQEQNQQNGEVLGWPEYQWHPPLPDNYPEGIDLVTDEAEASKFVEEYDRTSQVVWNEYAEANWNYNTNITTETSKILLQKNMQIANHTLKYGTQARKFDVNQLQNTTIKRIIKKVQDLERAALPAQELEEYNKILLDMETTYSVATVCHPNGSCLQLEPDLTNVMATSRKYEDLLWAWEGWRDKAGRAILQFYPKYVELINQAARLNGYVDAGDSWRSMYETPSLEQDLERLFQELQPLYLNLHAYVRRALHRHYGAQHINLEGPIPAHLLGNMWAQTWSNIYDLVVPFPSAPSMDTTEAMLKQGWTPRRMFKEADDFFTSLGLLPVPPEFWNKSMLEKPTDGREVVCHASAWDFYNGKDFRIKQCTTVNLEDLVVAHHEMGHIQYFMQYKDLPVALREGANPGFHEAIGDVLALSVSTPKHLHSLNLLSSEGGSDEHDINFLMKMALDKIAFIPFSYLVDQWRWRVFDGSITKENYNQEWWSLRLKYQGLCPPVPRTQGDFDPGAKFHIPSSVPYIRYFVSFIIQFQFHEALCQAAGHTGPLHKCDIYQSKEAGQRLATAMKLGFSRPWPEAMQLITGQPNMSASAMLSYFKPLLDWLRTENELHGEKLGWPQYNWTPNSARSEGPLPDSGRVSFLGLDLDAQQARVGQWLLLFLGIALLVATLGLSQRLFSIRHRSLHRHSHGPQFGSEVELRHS
molecule,measurement,setting,value
"COc1cc(C=CC(=O)CC(=O)C=Cc2ccc(O)c(O)c2)ccc1O [Compound 7, 1-(3,4-Dihydroxyphenyl)-7-(3-methoxy-4-hydroxyphenyl)-1,6-heptadiene-3,5-dione]",NEP activity of human SHSY5Y cells treated with compound (effect in words),NEP,largely enhanced NEP activity; also recorded: large enhancements of NEP activity
"qf-Aβ(1-7)C: Peptide DAEFRHDC, Aβ residues 1-7 plus C-terminal Cys, with Alexa-350 on the Cys side-chain and Dabcyl quencher at the N-terminus ({Dabcyl′}-DAEFRHDC(Alexa‑350)-OH)",lowest substrate concentration at which 0.92 nM NEP could be detected,"recombinant human NEP; 0.92 nM NEP, 37° C.",0.46 µM
same,fluorescence intensity increase with degradation of the quenched fluorogenic peptide,"recombinant human NEP; 0.92 nM NEP, 37° C., emission at 465 nm",at least 40 fold
same,cleavage of the quenched fluorogenic peptide by NEP,"recombinant human NEP; 2 μM substrate, pH 7.5, 37° C.",effective
same,cleavage of the quenched fluorogenic peptide by IDE,"[1]; 2 μM substrate, pH 7.5, 37° C.",effective
same,lowest IDE concentration detected,"[1]; 37° C., 1 h",0.2 nM
same,fluorescence increase after digestion with ACE,[2]; 1-h digestion,no significant fluorescence increase
same,fluorescence increase after incubation with ACE,[2]; 3 h,very weak fluorescence increase
same,fluorescence increase after digestion with MMP-3,MMP-3; 1-h digestion,no significant fluorescence increase
same,fluorescence increase after incubation with MMP-3,MMP-3; 3 h,very weak fluorescence increase
same,fluorescence increase after digestion with plasmin,Human plasmin; 1-h digestion,no significant fluorescence increase
same,sensitivity of the system to plasmin,"Human plasmin; pH 7.5, 37° C.",much less sensitive
same,sensitivity of the system to ECE-1,[3],insensitive; also recorded: much less sensitive
same,sensitivity of the system to MMP-9,MMP-9,insensitive; also recorded: much less sensitive
"COc1cc(C=CC(=O)CC(=O)C=Cc2cc(O)c(O)c(OC)c2)cc(O)c1O [Compound 10, 1,7-Bis(3,4-dihydroxy-5-methoxyphenyl)-1,6-heptadiene-3,5-dione]",NEP activity of human SHSY5Y cells treated with compound (effect in words),NEP,largely enhanced NEP activity; also recorded: large enhancements of NEP activity
"O=C(C=Cc1ccc(O)c(O)c1)CC(=O)C=Cc1ccc(O)c(O)c1 [Compound 8, 1,7-Bis(3,4-dihydroxyphenyl)-1,6-heptadiene-3,5-dione]",NEP activity of human SHSY5Y cells treated with compound (effect in words),NEP,largely enhanced NEP activity; also recorded: large enhancements of NEP activity
"COc1ccc2ccccc2c1C=CC(=O)CC(=O)C=Cc1c(OC)ccc2ccccc12 [Compound 14, 1,7-Bis(2-methoxy-1-naphthyl)-1,6-heptadiene-3,5-dione]",NEP activity of human SHSY5Y cells treated with compound (effect in words),NEP,decreased NEP activity
same,decrease of NEP activity,NEP,~20%
"O=C(C=Cc1ccc(O)cc1)CC(=O)C=Cc1ccc(O)c(O)c1 [Compound 20, 1-(3,4-dihydroxyphenyl)-7-(4-hydroxyphenyl)-1,6-heptadiene-3,5-dione]",NEP activity of human SHSY5Y cells treated with compound (effect in words),NEP,largely enhanced NEP activity; also recorded: large enhancements of NEP activity
